From the RNAGym collection of RNA variant scans (doi:10.7554/elife.80360)

B1: CPEB3 Ribozyme (parent)
chain: GGGGGCCACAGCAGAAGCGUUCACGUCGCGGCCCCUGUCAGAUUCUGGUGAAUCUGCGAAUUCUGCUGU

Variants of: B1
Test: self-cleavage, relative activity (ratio to wild type); higher = more cleavage; co-transcriptional
For GGGGGCCACAGCAGAAGCCUUCACGUGGCGGCCCCUGUCAGAUUCUGGUGAAUCUGCGAAUUCUGCUGU [G19C C27G], the self-cleavage was 0.961. Work on GGGGGCCACAGCAGAAGCCUUCACGUUGCGGCCCCUGUCAGAUUCUGGUGAAUCUGCGAAUUCUGCUGU [G19C C27U] yielded a self-cleavage of 0.116. GGGGGCCACAGCAGAAGCCUUCCCGUCGCGGCCCCUGUCAGAUUCUGGUGAAUCUGCGAAUUCUGCUGU [G19C A23C] showed a self-cleavage of 0.181. GGGGGCCACAGCAGAAGCCUUCUCGUCGCGGCCCCUGUCAGAUUCUGGUGAAUCUGCGAAUUCUGCUGU [G19C A23U] gave a self-cleavage of 0.119. GGGGGCCACAGCAGAAGCAUUCACGACGCGGCCCCUGUCAGAUUCUGGUGAAUCUGCGAAUUCUGCUGU [G19A U26A] gave a self-cleavage of 0.19. For GGGGGCCACAGCAGAAGCAUUCACGUCGCGGCCCCUGUCAGAUUCUGGUGAAUCUGCGAAUUCUGCUUU [G19A G68U], the self-cleavage was 0.232. Variant GGGGGCCACAGCAGAAGCAUUCACGUCGCGGCCCCUGUCAGAUUCUGGUGAAUCUGCGAAUACUGCUGU [G19A U62A] has a self-cleavage of 0.204. GGGGGCCACAGCAGAAGCAUUCACGUCGCGGCCCCUGUCAGAUUCUGGUGAAUCUGCGAAUGCUGCUGU [G19A U62G] gave a self-cleavage of 0.169. GGGGGCCACAGCAGAAGCCUUCACGUCGCGGCUCCUGUCAGAUUCUGGUGAAUCUGCGAAUUCUGCUGU [G19C C33U] showed a self-cleavage of 0.181. GGGGGCCACAGCAGAAGCCUUCACGUCGCGGCGCCUGUCAGAUUCUGGUGAAUCUGCGAAUUCUGCUGU [G19C C33G] gave a self-cleavage of 0.142. GGGGGCCACAGCAGAAGCCUUCACGUCGCGGUCCCUGUCAGAUUCUGGUGAAUCUGCGAAUUCUGCUGU [G19C C32U] gave a self-cleavage of 0.198. Variant GGGGGCCACAGCAGAAGCCUUCACGUCGCGGACCCUGUCAGAUUCUGGUGAAUCUGCGAAUUCUGCUGU [G19C C32A] has a self-cleavage of 0.146. Variant GGGGGCCACAGCAGAAGCAUUCACGUCGCGGCCCCUGUCAGAUUCUGGUGAAUCUGCUAAUUCUGCUGU [G19A G58U] has a self-cleavage of 0.194. With GGGGGCCACAGCAGAAGCAUUCACGUCGCGGCCCCUGUCAGAUUCUGGUGAAUCUGCCAAUUCUGCUGU [G19A G58C] the self-cleavage was 0.168. For GGGGGCCACAGCAGAAGCAUUCACGUCGCGGCCCCUGUCAGAUUCUCGUGAAUCUGCGAAUUCUGCUGU [G19A G47C], the self-cleavage was 0.25. Variant GGGGGCCACAGCAGAAGCAUUCACGUCGCGGCCCCUGUCAGAUUCUGGUGAAUCUGCGAAUUCUCCUGU [G19A G65C] has a self-cleavage of 0.127. GGGGGCCACAGCAGAAGCAUUCACGUCGCGGCCCCUGUCAGAUUCUGGUGAAUCUGCGAAUUCUUCUGU [G19A G65U] showed a self-cleavage of 0.159. Variant GGGGGCCACAGCAGAAGCAUUCACGUCGCGGCCCCUGUCAGAUUCUGGUGAAUCUGCGAAUUCUACUGU [G19A G65A] has a self-cleavage of 0.0987. With GGGGGCCACAGCAGAAGCAUUCACGUCGCGGCCCCUGUCAGAUUCUGGUGAAACUGCGAAUUCUGCUGU [G19A U53A] the self-cleavage was 0.174. GGGGGCCACAGCAGAAGCCUUCACGUCGCGGCCCCUGUCGGAUUCUGGUGAAUCUGCGAAUUCUGCUGU [G19C A40G] showed a self-cleavage of 0.194. GGGGGCCACAGCAGAAGCCUUCACGUCGCGGCCCCUGUCUGAUUCUGGUGAAUCUGCGAAUUCUGCUGU [G19C A40U] gave a self-cleavage of 0.0999. Variant GGGGGCCACAGCAGAAGCAUUCACGUCGCGGCCCCUGUCAGAUUCUGGUGAAUCUGCGAAUUCUGCUGA [G19A U69A] has a self-cleavage of 0.184. With GGGGGCCACAGCAGAAGCAUUCACGUCGCGGCCCCGGUCAGAUUCUGGUGAAUCUGCGAAUUCUGCUGU [G19A U36G] the self-cleavage was 0.165. Variant GGGGGCCACAGCAGAAGCAUUCACGUCGCGGCCCCAGUCAGAUUCUGGUGAAUCUGCGAAUUCUGCUGU [G19A U36A] has a self-cleavage of 0.0999. GGGGGCCACAGCAGAAGCCUUCACGUCGCGGCCGCUGUCAGAUUCUGGUGAAUCUGCGAAUUCUGCUGU [G19C C34G] showed a self-cleavage of 0.115. Work on GGGGGCCACAGCAGAAGCCUUCACGUCGCGGCCUCUGUCAGAUUCUGGUGAAUCUGCGAAUUCUGCUGU [G19C C34U] yielded a self-cleavage of 0.209. For GGGGGCCACAGCAGAAGCCUUCACGUCGCGGCCACUGUCAGAUUCUGGUGAAUCUGCGAAUUCUGCUGU [G19C C34A], the self-cleavage was 0.196. GGGGGCCACAGCAGAAGCAUUCACGUCGCGGCCCCUGUCAGAUUCUGGUAAAUCUGCGAAUUCUGCUGU [G19A G50A] gave a self-cleavage of 0.197. GGGGGCCACAGCAGAAGCAUUCACGUCGCGGCCCCUGUCAGAUUCUGGUCAAUCUGCGAAUUCUGCUGU [G19A G50C] gave a self-cleavage of 0.204. Variant GGGGGCCACAGCAGAAGCAUUCACGUCGCGGCCCCUGUCAGAUUCUGGUGAAUCUGCGAAUUCUGCGGU [G19A U67G] has a self-cleavage of 0.205. In the case of GGGGGCCACAGCAGAAGCAUUCACGUCGCGGCCCCUGUCAGAUUCUGGUGAAUCUGCGAAUUCUGCCGU [G19A U67C], the self-cleavage is reported as 0.177. Work on GGGGGCCACAGCAGAAGCAUUCACGUCGCGGCCCCUGUCAGAUUCUGGUGAAUCUCCGAAUUCUGCUGU [G19A G56C] yielded a self-cleavage of 0.0715. In the case of GGGGGCCACAGCAGAAGCAUUCACGUCGCGGCCCCUGUCAGAUUCUGGUGAAUCUACGAAUUCUGCUGU [G19A G56A], the self-cleavage is reported as 0.104. Variant GGGGGCCACAGCAGAAGCAUUCACGUCGCGGCCCCUGUCAGAUUCUGGCGAAUCUGCGAAUUCUGCUGU [G19A U49C] has a self-cleavage of 0.163. GGGGGCCACAGCAGAAGCAUUCACGUCGCGGCCCCUGUCAGAUUCUGGAGAAUCUGCGAAUUCUGCUGU [G19A U49A] showed a self-cleavage of 0.2. In the case of GGGGGCCACAGCAGAAGCAUUCACGUCGCGGCCCCUGUCAGAUUCUGGGGAAUCUGCGAAUUCUGCUGU [G19A U49G], the self-cleavage is reported as 0.181. Work on GGGGGCCACAGCAGAAGCAUUCACGUCGCGGCCCCUGUCAGAUUCUGGUGAAUCCGCGAAUUCUGCUGU [G19A U55C] yielded a self-cleavage of 0.218. GGGGGCCACAGCAGAAGCAUUCACGUCGCGGCCCCUGUCAGAUUCUGGUGAAUCAGCGAAUUCUGCUGU [G19A U55A] showed a self-cleavage of 0.185. GGGGGCCACAGCAGAAGCAUUCACGUCGCGGCCCCUGUCAGAUUCUGGUGAAUCGGCGAAUUCUGCUGU [G19A U55G] showed a self-cleavage of 0.099.
